In article PMC3716694, “Crystal structure of signal regulatory protein gamma (SIRPγ) in complex with an antibody Fab fragment” (BMC Structural Biology, 2013):

Experiments:
[1] = target: T1, extracellular region of human signal regulatory protein gamma (SIRPγ) (human, UniProt Q9P1W8-1, high-mannose N-glycans (CHO Lec3.2.8.1); in the crystal de-glycosylated with endoglycosidase F1, N-acetylglucosamine modelled at residue 240); assay: AUC; sedimentation velocity of SIRPγ: FabOX117 mixtures (2:1 and 1:2), total 1 mg/ml (13.7/6.3 μM), 40 000 rpm, 20 mM Tris-HCl pH 7.5, 200 mM NaCl, 20°C; settings: both partners purified
T1 construct: SIRPγ, human, residues 29-347 of NP_061026, three Ig-like domains d1-d3; Glycosylated in the AUC experiments, Endo F1-treated in the crystal; also called SIRPβ2

[2] = target: T1, extracellular region of human signal …; assay: AUC; sedimentation equilibrium of SIRPγ: FabOX117 mixtures at 2:1, 1:1 and 1:2, total 1 mg/ml, 15 000, 20 000, 28 000 and 36 000 rpm, fitted to A + B ↔ AB (SEDPHAT), 20 mM Tris-HCl pH 7.5, 200 mM NaCl, 20°C; settings: both partners purified

T1 sequence (Q9P1W8 29-347): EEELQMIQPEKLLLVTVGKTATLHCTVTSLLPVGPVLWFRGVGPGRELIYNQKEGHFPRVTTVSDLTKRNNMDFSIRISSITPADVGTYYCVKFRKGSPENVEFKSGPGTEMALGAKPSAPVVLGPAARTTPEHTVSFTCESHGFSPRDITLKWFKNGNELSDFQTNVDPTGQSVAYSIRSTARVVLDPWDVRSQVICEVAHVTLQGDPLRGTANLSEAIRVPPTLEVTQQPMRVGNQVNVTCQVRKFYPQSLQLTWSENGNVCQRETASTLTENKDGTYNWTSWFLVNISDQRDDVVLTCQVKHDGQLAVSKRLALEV

B1: Fab fragment of the anti-SIRP monoclonal antibody OX117 (Fab, V domains shown)
VH: EVKLQQSGPELVKPGASVKISCKASGYSFTSYYIHWVKQRPGQGLEWIGWVFPGSGNTKYNEKFKGKATLTADTSSSTAYMQLSSLTSEDSAVYFCARGNYDRAWFAYWGQGTLVTVSA
VL: DIVITQSPKFMSTSVGDRVSITCKASQDVSTAVAWFQQKPGQSPKLLIYSASYRYTGVPDRFTGSGSGTDFTFTISSVQAEDLAVYYCQQHYSTPWTFGGGTKLEIK
notes: Fd region (Vh and CH1 domains) of OX117, 220 residues; light chain of OX117, 214 residues; Recombinant Fab; also called FabOX117; not shown: His6, C-terminal, kept
Question: B1 was tested. Which “stoichiometry N” value [1] did it give?
Answer: 1

Question: And the Kd [2]?
Answer: 1.2 µM
